Experimental data published in article PMC2952493 (Biochemistry, 2010).

Target: the molecule itself
Test: SEC

B1: recombinant His-tagged TRUSS_(1-797) (natural protein, UniProt Q9JLV2 1-797, looked up)
chain: MAAAPAAAGAGASRGRRLAATAAAWGGWGGRPRPGNILLQLRQGQLTGRGLVRAVQFTETFLTERDKLSKWSGIPQLLLKLYATSHLHSDFVECQSILKEISPLLSMEAMAFVTEDRKFTQEATYPNTYIFDLFGGVDLLVEILMRPTISIRGQKLKISDEMSKDCLSILYNTCVCTEGVTKRLAEKNDFVIFLFTLMTSKKTFLQTATLIEDILGVKKEMIRLDEVPNLSSLVSNFDQQQLANFCRILAVTISEMDTGNDDKHTLLAKNAQQKKSLSLGPSAAEINQAALLSIPGFVERLCKLATRKVSESTGTASFLQELEEWYTWLDNALVLDALMRVANEESEHNQAPTVFPSLGTSEEGGLPHTSARAQLPQSMKIMHEIMYKLEVLYVLCVLLMGRQRNQVHRMIAEFKLIPGLNNLFDKLIWRKHSASALVLHGHNQNCDCSPDITLKIQFLRLLQSFSDHHENKYLLLNNQELNELSAISLKANIPEVEAVLNTDRSLVCDGKRGLLTRLLQVMKKEPAESSFRFWQARAVESFLRGTTSYADQMFLLKRGLLEHILYCIVDSECKSRDVLQSYFDLLGELMKFNVDAFKRFNKYINTDAKFQVFLKQINSSLVDSNMLVRCVTLSLDRFENQVDMKVAEVLSECRLLAYISQVPTQMSFLFRLINIIHVQTLTQENVSCLNTSLVILMLARRKERLPLYLRLLQRMEHSKKYPGFLLNNFHNLLRFWQQHYLHKDKDSTCLENSSCISFSYWKETVSILLNPDRQSPSALVSYIEEPYMDIDRDFTEE
Q: Which “stoichiometry N” value does the source give for B1 here?
A: 3
